The subject of one assay is TiLV-positive antibody. Briefly: Depletion of TiLV-positive antibodies by epitope peptides (ELISA). It counts as binding, tilapia. The settings on record: TiLV-positive antibody diluted 800-fold, 10 depletion cycles. As for the experimental part: The epitope peptide to be detected was coated on the ELISA plate at 37°C for 2 h. After washing with PBST, it was blocked with 2% skim milk powder for 2 h to reduce non-specific binding. The TiLV-positive antibody was diluted 800-fold and added to the wells at 100 µL per well. After incubation at room temperature for 20 min, the liquid was aspirated. The ELISA plate was briefly washed, and then, the serum was added again. This process was repeated 10 times, and then, the serum was collected. An ELISA was performed on the collected serum to detect the level of tilapia IgM. Blank and non-depleted negative controls were set up in the experiment. The depletion rate was calculated as follows: Depletion rate = (OD450 of non-depleted sample − OD450 of detected sample) / OD450 of non-depleted sample × 100%.
On the technique in general: In an ELISA, binding on a coated surface is turned into a signal by an enzyme label.

Another assay deals with scFv1. Briefly: Western blot, binding of S3 epitope peptide and mutants to GST-scFv1. Further details: species or system Nile tilapia (Oreochromis niloticus). The settings on record: PVDF membrane with GST-scFv1 incubated with S3 proteins 37°C 2 h; 6×His tag antibody. As for the experimental part:
The PET-N-GST-scFv1 plasmid was constructed using seamless cloning technology (Vazyme), and the protein was obtained through a prokaryotic expression system. The scFv1 protein was purified using GST resin (Beyotime) and stored after lyophilization. Similarly, S3-WT, S3-MuT-^Y386^A, S3-MuT-^R393^A, S3-MuT-^L398^A, and S3-MuT were expressed in prokaryotes using the pET32a plasmid. In the Western blot experiment, after blocking, the PVDF membrane containing GST-scFv1 blots was incubated with each of the five S3 proteins at 37°C for 2 h. Subsequently, the anti-6×His tag mouse mAb was used as the primary antibody, and HRP-conjugated goat anti-mouse IgG was used as the secondary antibody. The ECL color development steps were performed as described above.
In general terms: A western blot detects proteins with antibodies after separation by electrophoresis.

The test system of another assay is tilapia IgM. Briefly: Serum antibody levels of tilapia after immunization with epitope peptides (ELISA). It counts as in vivo, Nile tilapia (Oreochromis niloticus). The settings on record: 20 µg peptide i.m. with Freund's adjuvant, 7-28 days. An excerpt:
Epitope vaccines usually need to be modified with Freund’s adjuvant (Beyotime) before immunization. Briefly, for a single immunization, the epitope peptide is mixed with an equal dose of complete Freund’s adjuvant and then administered to tilapia. For booster immunization, an equal dose of incomplete Freund’s adjuvant is fused with the epitope peptide before vaccination. For the S1, S3, and S10 epitope vaccine immunization programs, healthy Oreochromis niloticus were divided into six groups (70 fish per group) and vaccinated with 20 µg of peptide vaccine by intramuscular injection. During the 1–4 week immunization period, we collected four fish serum samples weekly for immunological analysis.
In the immunization experiments based on the P30-designed vaccine, healthy Nile tilapia were divided into four groups (70 fish per group) and injected intramuscularly with 20 µg of peptide vaccine to complete the primary immunization. After 14 days, the same dose of vaccine was administered again to complete the booster immunization. Serum and tissue samples were collected from 4 fishes in each group weekly after the primary immunization, for a total of 6 weeks. Furthermore, a PBS control was incorporated into both immunization experiments, and the immunization process was conducted in accordance with the aforementioned methodology.
Serum antibody levels after immunization were determined by indirect ELISA. Specifically, serum samples were diluted appropriately, coated to enzyme-labeled plates, and incubated overnight at 4°C. After being washed three times with PBST buffer, each well was incubated with mouse anti-tilapia IgM mAb (1:5,000) at 37°C for 1 h. After washing, each well was incubated with HRP-conjugated goat anti-mouse IgG (1:5,500) for an additional hour. Color development was carried out as described above.

In assay [1] the test system is TiLV. As to the kind of experiment: In vivo protection study of scFv1 against TiLV infection in tilapia. The settings on record: scFv1 10 μg/g i.p. 12 h after TiLV. Also noted: species or system Nile tilapia (Oreochromis niloticus). How it is done: Healthy Nile tilapia (Oreochromis niloticus) with a body weight of approximately 3.2±0.6 g were selected. After being temporarily cultured in a circulating water aquaculture system, they were randomly divided into a neutralization experimental group, a virus control group, and a BSA control group, with 30 fish in each group. In the experimental group, 50 μL of TiLV virus suspension (8×10^3 copies/μL) was injected intraperitoneally. Twelve hours later, a solution of scFv1 diluted in PBS at a dose of 10 μg/g was injected intraperitoneally. In the BSA control group, after injecting the same dose of TiLV, BSA solution of the same concentration was used instead of the scFv1. In the virus control group, only virus was injected. Meanwhile, a blank control was set up. After the injection, the mortality of tilapia was observed and recorded continuously for 10 days, and the cumulative mortality rate was calculated.

Assay [2] has as its system TiLV. Briefly: Cellular fluorescence analysis of binding between scFv1 and TiLV in CIK cells. It counts as cell-based. The settings on record: GST-scFv1 incubated 24 h with TiLV-infected CIK cells. As for the experimental part: After being cultured for 48 h, CIK cells grew into a monolayer and were then continuously incubated with TiLV virus at 28°C for 72 h. Subsequently, the culture medium was replaced, and the cells were incubated with GST-scFv1 protein for 24 h to ensure binding to TiLV particles. The cells were fixed with 4% paraformaldehyde at room temperature for 10 min and then incubated with immunostaining permeabilization buffer with Triton X-100 for 10 min. Subsequently, the GST mouse mAb (1:500, Beyotime) was used as the primary antibody and incubated with CIK cells at 4°C overnight, and FITC-labeled goat anti-mouse IgG (1:500, Beyotime) was used as the secondary antibody. After DAPI staining, the cells were observed under a fluorescence microscope. Cells that were not incubated with GST-scFv1 protein served as the control.

The test system of assay [3] is TiLV. As to the kind of experiment: Indirect ELISA, affinity of scFv for TiLV. It is filed as binding, tilapia lake virus (TiLV). How it is done: The scFv affinity assay was performed by indirect ELISA. The virus (4 × 10^3 copies/μL) was incubated overnight at 4°C after being coated in the wells. After blocking with 5% skim milk, 100 µL of scFv1 and scFv3 proteins at the same concentrations (0.01–100 μg/mL) were added and incubated. Meanwhile, BSA proteins with the same concentration gradient were used as controls. The primary and secondary antibodies were 6×His tag mouse mAb and HRP-conjugated goat anti-mouse IgG, respectively, following the previous protocol. The color development and readings were performed as described above. The scFvs obtained from both the prokaryotic and eukaryotic expression systems were verified for their affinity to TiLV. Meanwhile, the BSA protein was used as a negative control.

Take GYQLASEIRGTIPLSS [S3WT]: the “TiLV-positive antibody depletion rate” value in the assay on TiLV-positive antibody is reported as approximately 70%. Also, the “binding to GST-scFv1 by Western blot” value with scFv1 is “able to bind”. Moreover, the “immunogenicity (serum antibody titer) after single immunization” value with tilapia IgM was “highest immunogenicity”.

B1: scFv1: tilapia-derived single-chain antibody fragment with high affinity for TiLV, from phage library (protein)
scFv: MSHRLTCAYSGFSSDIHAVWVRQAAGKGLEWIAYISDSSAYIYYSQSVRGRFTISRDNSRKQVYLQMNSLTTEDSAVYYCTREGSGFAFDYWGKGTGGGGSGGGGSGGGGSVTISATGSSNIGADLSWYLQKTGETPKLLIYKASTRSSGTPPRFSGSTSGSQYTLTISGVQAEDAGDYYCLGDHGGGALTFGGGTK
modifications: left off: 6×His, end not stated, kept | thioredoxin (from the vector pET32a), end not stated, state not stated
On to B1, for which, in the assay with TiLV [1], the “increase of the survival rate of TiLV-infected tilapia” value was approximately 30%. For the same molecule, the “binding to TiLV on infected CIK cells (green fluorescence)” value in the assay on TiLV [2] is reported as “had bound to TiLV”. Besides, the “EC50 of the scFv expressed in CHO cells that binds to TiLV” value in the assay on TiLV [3] (indirect ELISA, scFv from CHO expression system) was 2.098 µg/mL. Moreover, at TiLV [3] (indirect ELISA, scFv from prokaryotic expression, coated virus 4 × 10^3 copies/μL, scFv 0.01–100 μg/mL), the “EC50 for the binding of scFv to TiLV” value is 33.06 µg/mL. Besides, the “EC50 of scFv1 fold lower than that of scFv3” value in the assay with TiLV [3] (prokaryotic expression, binding to TiLV) is listed as 3.22 fold.

These data come from article PMC12724136, “Design of antibody structure-guided epitope vaccines in silico to induce potent immune responses against emerging viruses” (Journal of Virology, 2025).
